A value given as a limit tells only on which side of the number the result lay.

To fix the notation:
B4: recombinant human soluble tissue factor (receptor, UniProt P13726 33-251, looked up)
chain: SGTTNTVAAYNLTWKSTNFKTILEWEPKPVNQVYTVQISTKSGDWKSKCFYTTDTECDLTDEIVKDVKQTYLARVFSYPAGNVESTGSAGEPLYENSPEFTPYLETNLGQPTIQSFEQVGTKVNVTVEDERTLVRRNNTFLSLRDVFGKDLIYTLYYWKSSSSGKKTAKTNTNEFLIDVDKGENYCFSVQAVIPSRTVNRKSTDSPVECMGQEKGEFRE
notes: extracellular domain; also called sTF; soluble TF

Data set [1] concerns the target full length TF in phospholipid vesicles (human, UniProt P13726 33-295). In words: cell-based or functional assay.
Data set [2] has as its target T1, sTF/FVIIa complex (preformed from sTF and a 2.3 fold molar excess of FVIIai) (human, UniProt P13726 33-251; P08709 61-466, limits assumed, active site inhibited (FVIIai); the way of inhibition is not stated for this batch).
T1 construct: Complex used in the microcalorimeter cell; complete complexing of sTF verified by size exclusion chromatography; also called sTF/VIIa complex; FVIIa/TF complex
The experiment in a line: isothermal titration calorimetry (MicroCal VP-ITC), 65 µM scFv(TF)3e10 in the syringe, 1.2 µM preformed sTF/FVIIai complex in the cell, OneSites model. How it is done: (§1) FIG. 3. […] Isothermal titration calorimetry was performed using a MicroCal VP-ITC instrument. […] Data analysis was done using MicroCal Origin software. The data was fit to a single binding site.

The target of data set [3] is T1, sTF/FVIIa complex (preformed from sTF …). In words: isothermal titration calorimetry. On the procedure:
as §1

Data set [4] has as its target B4. The experiment in a line: isothermal titration calorimetry (MicroCal VP-ITC), 141 µM scFv(TF)3e10 in the syringe, 10 µM sTF in the cell, OneSites model. How it is done:
as §1
In general terms: ITC needs no label: the signal is the heat of the interaction.

Data set [5] has as its target B4. The experiment in a line: apparent KD from the sTF/FVIIa chromogenic activation assay (3 nM sTF, 2 nM FVIIa, antibody titrated, 4-parameter fit); sTF/FVIIa chromogenic assay, apparent KD.
Data set [6] deals with B4. The experiment in a line: isothermal titration calorimetry (MicroCal VP-ITC), 10 uM sTF in the cell, 141 uM scFv in the syringe; microcalorimetry, free sTF as target. How it is done:
as §1

Data set [7] addresses T1, sTF/FVIIa complex (preformed from sTF …). In words: isothermal titration calorimetry (MicroCal VP-ITC), 1.2 uM complex in the cell, 65 uM scFv in the syringe; microcalorimetry, TF/FVIIa complex as target. On the procedure: as §1
In a further data set the target is T2, Human FVIIa (human, UniProt P08709 61-466).
T2 construct: Bought protein; also called factor VIIa
T2 sequence (looked up): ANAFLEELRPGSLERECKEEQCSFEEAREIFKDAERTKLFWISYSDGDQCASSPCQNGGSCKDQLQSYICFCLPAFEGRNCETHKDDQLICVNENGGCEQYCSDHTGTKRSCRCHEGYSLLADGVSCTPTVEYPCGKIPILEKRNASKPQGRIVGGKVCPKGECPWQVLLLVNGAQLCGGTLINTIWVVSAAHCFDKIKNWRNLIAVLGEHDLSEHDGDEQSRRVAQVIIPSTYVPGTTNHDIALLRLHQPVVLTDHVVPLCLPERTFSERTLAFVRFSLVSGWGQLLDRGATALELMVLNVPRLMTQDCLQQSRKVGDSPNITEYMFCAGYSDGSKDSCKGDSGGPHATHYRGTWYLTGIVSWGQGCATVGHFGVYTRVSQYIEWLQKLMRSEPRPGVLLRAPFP
The experiment in a line: sTF/FVIIa activation assay: sTF titrated against 2 nM FVIIa without antibody, rate of cleavage of chromogenic substrate S-2266, apparent KD from a 4-parameter fit.

B1: scFv(TF)3e10-TMi456 fusion protein (other)
chain: EMAQVNLRESGGTLVQPGGSLRLSCAASGFSFTDAWMSWVRQAPGKELEWVSSISGSGGSTYYAGSVKGRFTISRDNSKNTLYLQMNSLRAEDTAVYYCARVLSLTDYYWYGMDVWGQGTLVTVSAGGGGSGAPNFMLTQPHSVSASPGKTVTISCTRSSGSVASYYVQWYQQRPGSSPTTVIYEDNHRPSGVPDRFSGSIDTSSNSASLTISGLKTEDEADYYCQSYDSNNLVVFGGGTKLTVLGAAAGGGGSGGGGSGGGGSVEPVDPCFRANCEYQCQPLNQTSYLCVCAEGFAPIPHEPHRCQMFCNQTACPADCDPNTQASCECPEGYILDDGFICTDIDECENGGFCSGVCHNLPGTFECICGPDSALAGQIGTDCAAAGAPVPYPDPLEPRAA
As to B1, in data set [1], the “IC50 of FX activation by the FVIIa/TF complex” value worked out at 0.5 nM and the “TM cofactor activity (protein C activation assay on TF-rich surface)” value is greater than 5 fold.

B2: scFV(TF)3e10 (dimer) (scFv)
scFv: EMAQVNLRESGGTLVQPGGSLRLSCAASGFSFTDAWMSWVRQAPGKELEWVSSISGSGGSTYYAGSVKGRFTISRDNSKNTLYLQMNSLRAEDTAVYYCARVLSLTDYYWYGMDVWGQGTLVTVSAGGGGSGAPNFMLTQPHSVSASPGKTVTISCTRSSGSVASYYVQWYQQRPGSSPTTVIYEDNHRPSGVPDRFSGSIDTSSNSASLTISGLKTEDEADYYCQSYDSNNLVVFGGGTKLTVLGAAAGAPVPYPDPLEPRAA
For B2, the “IC50 for inhibition in the FX activation assay” value in data set [1] was determined as 0.44 nM.

B3: single chain anti-TF antibody scFv(TF)3e10 (scFv)
scFv: EMAQVNLRESGGTLVQPGGSLRLSCAASGFSFTDAWMSWVRQAPGKELEWVSSISGSGGSTYYAGSVKGRFTISRDNSKNTLYLQMNSLRAEDTAVYYCARVLSLTDYYWYGMDVWGQGTLVTVSAGGGGSGAPNFMLTQPHSVSASPGKTVTISCTRSSGSVASYYVQWYQQRPGSSPTTVIYEDNHRPSGVPDRFSGSIDTSSNSASLTISGLKTEDEADYYCQSYDSNNLVVFGGGTKLTVLGAAAGAPVPYPDPLEPRAA
notes: Human scFv from phage library HuPhaBL3
In the case of B3, the N in data set [2] is 1.14; in data set [4] it was 0.878. Besides, the ΔH in data set [2] was -28.6 kcal/mol; in data set [4] it was -21.9 kcal/mol. The ΔS in data set [2] was -60; in data set [4] it was -43.6. The “fold higher affinity than for free sTF” value in data set [3] worked out at 20 fold. Also, the Kd was determined as 65.4 nM in data set [5], 600 nM in data set [6] and 33 nM in data set [7].
On to B4, for which the Kd with Human FVIIa came out at 13 nM.

(Values after US20040063632A1 (Bayer, published 2004).)
